Consider two molecules from patent US20150024957, “Methods and Devices for Detection and Measurement of Analytes” (THE UNIVERSITY OF TOLEDO, published 2015).

In this data set the target is Bovine serum albumin (BSA) (Bos taurus, UniProt P02769 P02769:25-607). The data set can be described thus: SPR; 400 nM BSA; minimal effect on response of aptamer sensor. Particulars: tags: Sigma Aldrich. As for the experimental part: Non-coated (i.e., no gold) SensiQ base sensors were custom modified with the developed gold based SPR sensing surfaces. Specifically, freshly prepared aptamer-immobilized gold substrates were coupled to the stripped sensors with index matching optical oil. This was followed by then loading of 100 μL 1 M ethanolamine (EA) at a flow rate of 20 μL/min to block the non-occupied MPA sites activated by the EDC/NHS, followed by an injection of 100 μL of 100 mM phosphoric acid (PPA) at 50 μL/min to remove the non-specific binding. The running buffer was 0.1 M pH 7.2 PBS. The sensor was first normalized with the buffer for 10 min, then the thrombin sample (25 μL) at concentrations of 5 nM, 25 nM, 50 nM, 250 nM 500 nM, 1000 nM, 2000 nM were loaded at 5 μL/min. Samples with BSA were all prepared with 400 nM BSA. All data was recorded at 290 s, 300 s, and 310 s after the sample injection and averaged. Sensor regeneration was performed by the injection of 100 μL PPA at 50 μL/min followed by washing with the running buffer.
Bovine serum albumin (BSA), sequence (P02769 25-607, one chain of several): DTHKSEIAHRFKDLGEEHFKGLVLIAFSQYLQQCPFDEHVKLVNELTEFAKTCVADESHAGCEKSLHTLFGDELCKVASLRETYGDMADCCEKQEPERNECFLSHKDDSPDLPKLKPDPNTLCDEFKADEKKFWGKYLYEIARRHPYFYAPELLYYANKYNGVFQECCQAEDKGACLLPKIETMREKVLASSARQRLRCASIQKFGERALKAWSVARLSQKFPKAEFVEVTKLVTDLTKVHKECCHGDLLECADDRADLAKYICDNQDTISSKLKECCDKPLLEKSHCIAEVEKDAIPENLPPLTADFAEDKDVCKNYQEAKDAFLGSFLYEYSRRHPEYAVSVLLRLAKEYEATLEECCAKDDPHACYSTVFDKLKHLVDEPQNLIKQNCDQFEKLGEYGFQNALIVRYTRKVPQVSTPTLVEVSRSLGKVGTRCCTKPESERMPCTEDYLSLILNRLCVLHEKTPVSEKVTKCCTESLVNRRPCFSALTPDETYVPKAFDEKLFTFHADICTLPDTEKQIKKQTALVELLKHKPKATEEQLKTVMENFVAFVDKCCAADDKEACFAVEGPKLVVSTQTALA
Adding BSA to the sample had minimal effect on the SPR response for the aptamer modified sensors, indicating a good selectivity of the sensor toward thrombin. This is in contrast to the bare Au sensor, which experienced a significant change between the thrombin samples with, and without, BSA. […]

GGTTGGTGTGGTTGG (ssDNA, 5'-NH2-(CH2)6) [APT1 (15-mer thrombin aptamer)]: the binding result was “no binding”.
Take CTATCAGTCCGTGGTAGGGCAGGTTGGGGTGACT (ssDNA, 5'-NH2-(CH2)6) [APT2 (34-mer thrombin aptamer)]: the binding result was “no binding”.
